From patent publication US11708423B2, “Chimeric engulfment receptor molecules and methods of use” (CERO THERAPEUTICS, INC., priority 2017, dated 2023)

Experiments:
[1] = system: CER-transduced CD4+ T cells; assay: Mass cytometry (CyTOF) with viSNE marker analysis of CER-transduced CD4+ T cells; format: cell-based, human
From the text: CD4+ T cells were transduced with lentiviral vector comprising CER104, CER116, or CER117 nucleic acid. CER104 (SEQ ID NO:133) comprises a Tim4 binding domain, Tim4 transmembrane domain, and an engulfment signaling domain comprising a primary engulfment signaling domain comprising a TLR8 signaling domain and a secondary engulfment signaling domain comprising a DAP12 signaling domain. CER116 (SEQ ID NO:143) comprises a Tim4 binding domain, Tim4 transmembrane domain, and an engulfment signaling domain comprising a primary engulfment signaling domain comprising a TRAF6 signaling domain and a secondary engulfment signaling domain comprising a TLR8 signaling domain. CER117 (SEQ ID NO:144) comprises a Tim4 binding domain, Tim4 transmembrane domain, and an engulfment signaling domain comprising a primary engulfment signaling domain comprising a TLR8 signaling domain and a secondary engulfment signaling domain comprising a TRAF6 signaling domain. CER-transduced CD4+ T cells were co-cultured with E7 TCR-transduced CD8+ T cells and HPV+SCC152 target cells and interrogated by mass cytometry (CyTOF) with viSNE for visualization of high dimensional single cell data (FIGS. 82-84). Intact CER-transduced CD4+ T cells are shown in plots displaying tSNE1 (horizontal) and tSNE2 (vertical) axes. 27 intracellular markers were used for the viSNE analysis. Each dot represents a single cell. […] Red represents high expression and blue represents low expression for each marker. Populations of CD4^+ T cells were generated using a clustering algorithm from all 27 markers and overlaid onto the viSNE map. […] Populations of CD4^+ T cells were generated using a clustering algorithm from all 18 markers and overlaid onto the viSNE map (FIG. 83A). […] Color plots by 18 intracellular markers (CD28, CCR7, CD45RA, PD1, CD127, Perforin, CD49d, CD85j, CD38, CD27, Granzyme B, CD57, CD25, CD69, CD154, CD56, HLA-DR, and TCRγδ) show the phenotype across viSNE ‘islands’ (FIG. 83B). Red represents high expression and blue represents low expression for each marker. Highlighted region with arrow indicates cells expressing T cell activation marker CD69. Populations of CD4^+ T cells were generated using a clustering algorithm from 18 intracellular markers (CD28, CCR7, CD45RA, PD1, CD127, Perforin, CD49d, CD85j, CD38, CD27, Granzyme B, CD57, CD25, CD69, CD154, CD56, HLA-DR, and TCRγ6) and overlaid onto the viSNE map. […] Color plots by the 18 intracellular markers show the phenotype across viSNE ‘islands’ (FIG. 84B). Red represents high expression and blue represents low expression for each marker. Highlighted region with arrow indicates cells expressing the naïve T cell marker CD45RA.

[2] = system: A549 ALK+Luciferase+ cells; assay: Adoptive transfer of CER T cells with ALK inhibitor in A549 ALK+ xenograft; format: in vivo, immunodeficient (NSG) mice; conditions: Alectinib 15 mg/kg intraperitoneally + 10e6 CER-transduced human T cells, NSG mice
Protocol: The combination of CER therapy and ALK inhibitor therapy was also evaluated in vivo. […] A549 ALK+Luciferase^+ cells were engrafted into immunodeficient (NSG) mice 21 days prior to initiation of study and evaluated for engraftment by bioluminescent emission and tumor volume seven days later. […] Animals received 10 μg of systemic IL-2 every 24 hours×3 days following cell infusion and then monitored for tumor progression and cell expansion and persistence thereafter.
Peripheral blood sample was stained with anti-human CD45-APC-conjugated antibody 8 days following cell infusion. Each FACS plot indicates a single animal. A bar graph depicting frequency of human CD45+ cells/μL of peripheral blood at days 4, 8, 16, and 25 post-adoptive transfer of CER122+ T cells (FIG. 77B). Peripheral blood was obtained by retro-orbital bleeding and examined for evidence of T cell engraftment by FACS. The frequency of human-CD45 cells/μL of peripheral blood was determined by FACs using TRUCOUNT (BD Biosciences) beads.

[3] = system: H1975 EGFR+/Luciferase+ cells; assay: Adoptive transfer of CER T cells with EGFR inhibitor in H1975 xenograft; format: in vivo, immunodeficient (NSG) mice; conditions: Osimeritinib 1 mg/kg intraperitoneally + 10e6 CER-transduced human T cells, NSG mice
Protocol: The combination of CER therapy and EGFR inhibitor therapy was also evaluated in vivo. […] H1975 EGFR+/Luciferase^+ cells were engrafted into immunodeficient (NSG) mice 14 days prior to initiation of study and evaluated for engraftment by bioluminescent emission and tumor volume seven days later. The day prior to CER adoptive transfer (day-1), animals with established tumors were randomized into groups and treated with Osimeritinib 1 mg/kg (intraperitoneally) and then infused by tail vein with 10e6 CER-transduced human T cells. Animals received 10 μg of systemic IL-2 every 24 hours×3 days following cell infusion and then monitored for tumor progression and cell expansion and persistence thereafter. Tumor volume measurements were obtained post-adoptive transfer in untreated, Osimeritinib treated (1 mg/kg)+mock-transduced T cells (vector only), and Osimeritinib (1 mg/kg)+CER122-transduced T cells (n=5/group) (FIG. 79).

HPV E7 oncoproteins = assay: Antigen cross-presentation, E6/E7 TCR NFAT-luciferase Jurkat reporter; format: cell-based, human; conditions: CD4+ and CD8+ T cells after phagocytosis of SCC152 HPV+ cells, compared to mock
From the text: CD4+ and CD8+CER-expressing T cell lines were established from human PBMCs. Purified T cells were transduced with lentivirus encoding CER123 (SEQ ID NO:150) and truncated EGFR (transduction marker), after activation with CD3 & CD28 microbeads, and then expanded in medium containing IL-7, IL-15, and IL-2 for 5 days. The percentage of tEGFR+ T cells ranged between 40-60%.
A Jurkat cell line with a stable integration of an NFAT-inducible Luciferase reporter construct was utilized to study T cell responses. Human E6- and E7-specific engineered TCRs were transduced into Jurkat NFAT reporter cell lines to characterize NFAT activation upon co-culture with engineered CERs.
For assessing MHC-I cross-presentation, SCC152 HPV^+ cells were co-cultured overnight with CER123-expressing CD4+ and CD8+ T cells or mock-transduced (vector only) T cells in the presence of T cells expressing an E7-specific TCR. […] NFAT activation was assessed at serial time points (0, 6, 12, 24, and 72 hrs) by measuring luciferase activity in cell culture supernatants. […] Induction of E711-19 —specific Jurkat T cells were quantified by luminescence of NFAT signaling at indicated time points and compared to Mock (vector-alone) transduced T cells (FIG. 87).

B1: CER104: Tim4 binding and transmembrane domains, TLR8 primary and DAP12 secondary signaling domains; SEQ ID NO:133 (protein)
chain: MSKGLLLLWLVTELWWLYLTPAASEDTIIGFLGQPVTLPCHYLSWSQSRNSMCWGKGSCPNSKCNAELLRTDGTRIISRKSTKYTLLGKVQFGEVSLTISNTNRGDSGVYCCRIEVPGWFNDVKKNVRLELRRATTTKKPTTTTRPTTTPYVTTTTPELLPTTVMTTSVLPTTTPPQTLATTAFSTAVTTCPSTTPGSFSQETTKGSAFTTESETLPASNHSQRSMMTISTDIAVLRPTGSNPGILPSTSQLTTQKTTLTTSESLQKTTKSHQINSRQTILIIACCVGFVLMVLLFLAFLHHLFYWDVWFIYNVCLAKVKGYRSLSTSQTFYDAYISYDTKDASVTDWVINELRYHLEESRDKNVLLCLEERDWDPGLAIIDNLMQSINQSKKTVFVLTKKYAKSWNFKTAFYLALQRLMDENMDVIIFILLEPVLQHSQYLRLRQRICKSSILQWPDNPKAEGLFWQTLRNVVLTENDSRYNNMYVDSIKQYYFLGRLVPRGRGAAEAATRKQRITETESPYQELQGQRSDVYSDLNTQRPYYK
modifications: CER104 protein
- memory formation after antigen encounter ([1]; CD4+ T cells): associated with memory formation after antigen encounter
- viSNE islands expressing T cell activation marker CD69 ([1]; CD4+ T cells after antigen encounter): enrichment of islands expressing the T cell activation marker CD69
- viSNE islands expressing intracellular marker IFNγ ([1]; CD4+ T cells after co-culture with E7 TCR CD8+ T cells and SCC152 cells): enrichment of islands expressing the intracellular marker IFNγ
- viSNE islands expressing naïve T cell marker CD45RA within the CCR7+ population ([1]; compared to controls): loss of islands expressing the naïve T cell marker CD45RA

B2: CER122: Tim4 binding and transmembrane domains, TLR2 primary and DAP12 secondary signaling domains; SEQ ID NO:149 (protein)
chain: MSKGLLLLWLVTELWWLYLTPAASEDTIIGFLGQPVTLPCHYLSWSQSRNSMCWGKGSCPNSKCNAELLRTDGTRIISRKSTKYTLLGKVQFGEVSLTISNTNRGDSGVYCCRIEVPGWFNDVKKNVRLELRRATTTKKPTTTTRPTTTPYVTTTTPELLPTTVMTTSVLPTTTPPQTLATTAFSTAVTTCPSTTPGSFSQETTKGSAFTTESETLPASNHSQRSMMTISTDIAVLRPTGSNPGILPSTSQLTTQKTTLTTSESLQKTTKSHQINSRQTILIIACCVGFVLMVLLFLAFLHRFHGLWYMKMMWAWLQAKRKPRKAPSRNICYDAFVSYSERDAYWVENLMVQELENFNPPFKLCLHKRDFIPGKWIIDNIIDSIEKSHKTVFVLSENFVKSEWCKYELDFSHFRLFDENNDAAILILLEPIEKKAIPQRFCKLRKIMNTKTYLEWPMDEAQREGFWVNLRAAIKSYFLGRLVPRGRGAAEAATRKQRITETESPYQELQGQRSDVYSDLNTQRPYYK
modifications: CER122 protein
- anti-tumor response (tumor volume, bioluminescence) [2]: enhanced anti-tumor response to ALK+NSCLC in vivo
- anti-tumor response (tumor volume) [3]: enhanced anti-tumor responses in EGFR+NSCLC model in vivo

B3: CER123: Tim4 binding and transmembrane domains, TLR2 primary and TRAF6 secondary signaling domains; SEQ ID NO:150 (protein)
chain: MSKGLLLLWLVTELWWLYLTPAASEDTIIGFLGQPVTLPCHYLSWSQSRNSMCWGKGSCPNSKCNAELLRTDGTRIISRKSTKYTLLGKVQFGEVSLTISNTNRGDSGVYCCRIEVPGWFNDVKKNVRLELRRATTTKKPTTTTRPTTTPYVTTTTPELLPTTVMTTSVLPTTTPPQTLATTAFSTAVTTCPSTTPGSFSQETTKGSAFTTESETLPASNHSQRSMMTISTDIAVLRPTGSNPGILPSTSQLTTQKTTLTTSESLQKTTKSHQINSRQTILIIACCVGFVLMVLLFLAFLHRFHGLWYMKMMWAWLQAKRKPRKAPSRNICYDAFVSYSERDAYWVENLMVQELENFNPPFKLCLHKRDFIPGKWIIDNIIDSIEKSHKTVFVLSENFVKSEWCKYELDFSHFRLFDENNDAAILILLEPIEKKAIPQRFCKLRKIMNTKTYLEWPMDEAQREGFWVNLRAAIKSMSLLNCENSCGSSQSESDCCVAMASSCSAVTKDDSVGGTASTGNLSSSFMEEIQGYDVEFDPPLESKYECPICLMALREAVQTPCGHRFCKACIIKSIRDAGHKCPVDNEILLENQLFPDNFAKREILSLMVKCPNEGCLHKMELRHLEDHQAHCEFALMDCPQCQRPFQKFHINIHILKDCPRRQVSCDNCAASMAFEDKEIHDQNCPLANVICEYCNTILIREQMPNHYDLDCPTAPIPCTFSTFGCHEKMQRNHLARHLQENTQSHMRMLA
modifications: CER123 protein
- cross-presentation of HPV E7 oncoproteins (NFAT activation) (HPV E7 oncoproteins): enhanced cross-presentation efficiency of HPV E7 oncoproteins
